Target: T1, Factor XI from DEAE treated human plasma (human, UniProt P03951 19-625)
T1 construct: mature; Plasma-derived, not purified when it was loaded on the Protein G column; also called FXI
Assay: Protein G column chromatography of 25 ml DEAE treated human plasma
Method: Therefore, 25 ml DEAE treated human plasma was subjected to a 1 ml Protein G column, to which IgG's selectively bound while more than 99% of the loaded Factor XI appeared in the flowthrough. Thus, a biological fluid containing Factor XI and depleted of IgG's was obtained.

T1 sequence (P03951 19-625 limits assumed): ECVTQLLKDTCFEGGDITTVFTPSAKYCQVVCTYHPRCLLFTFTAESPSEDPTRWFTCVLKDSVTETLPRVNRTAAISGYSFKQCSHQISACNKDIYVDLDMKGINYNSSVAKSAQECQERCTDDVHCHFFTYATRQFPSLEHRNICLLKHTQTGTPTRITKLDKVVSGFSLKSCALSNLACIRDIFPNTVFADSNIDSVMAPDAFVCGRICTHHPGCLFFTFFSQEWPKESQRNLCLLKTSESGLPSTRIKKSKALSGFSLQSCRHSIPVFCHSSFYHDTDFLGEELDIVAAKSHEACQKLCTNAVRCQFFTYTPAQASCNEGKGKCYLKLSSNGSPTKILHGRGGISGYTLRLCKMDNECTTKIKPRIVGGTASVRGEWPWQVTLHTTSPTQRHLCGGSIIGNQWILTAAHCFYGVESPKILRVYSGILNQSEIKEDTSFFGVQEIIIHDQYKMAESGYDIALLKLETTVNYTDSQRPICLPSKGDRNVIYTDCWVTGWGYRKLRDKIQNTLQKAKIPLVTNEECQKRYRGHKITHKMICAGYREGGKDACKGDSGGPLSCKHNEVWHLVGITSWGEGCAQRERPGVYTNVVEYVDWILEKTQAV

B1: Protein G (1 ml Protein G column) (other, UniProt P19909 303-497, looked up)
chain: TYKLILNGKTLKGETTTEAVDAATAEKVFKQYANDNGVDGEWTYDDATKTFTVTEKPEVIDASELTPAVTTYKLVINGKTLKGETTTEAVDAATAEKVFKQYANDNGVDGEWTYDDATKTFTVTEKPEVIDASELTPAVTTYKLVINGKTLKGETTTKAVDAETAEKAFKQYANDNGVDGVWTYDDATKTFTVTE
notes: Immobilised Protein G
binding result: no binding (tested: more than 99% in flowthrough)

Source: patent US20100062512A1 (CRUCELL HOLLAND B V, published 2010)
